These results are taken from patent US8017326B2, “Methods of modulating cell death based on the Bit-1/AES regulatory pathway” (Sanford-Burnham Medical Research Institute, priority 2002, dated 2011).

“Also recorded” adds a separate entry of the source.

Experiment [1] has as its target T1, AES (Homo sapiens, UniProt Q08117).
T1 construct: expressed in transfected cells; host or cells: yeast strain AH109
T1 sequence (Q08117 1-197): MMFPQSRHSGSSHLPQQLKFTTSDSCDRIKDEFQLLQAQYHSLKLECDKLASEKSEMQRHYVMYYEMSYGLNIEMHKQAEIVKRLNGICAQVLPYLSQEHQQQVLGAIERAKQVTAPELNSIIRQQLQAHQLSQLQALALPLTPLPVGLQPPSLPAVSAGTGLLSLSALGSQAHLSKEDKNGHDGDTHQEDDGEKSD
In words: Yeast two-hybrid analysis. It counts as binding. The settings on record: yeast co-transformed with vectors encoding both Bit1 and AES. The protocol:
To explore the mechanism whereby Bit1 induces cell death, a yeast-two-hybrid screening assay was performed to search for binding partners for the Bit1 protein. Full-length Bit1 cDNA was fused to the Gal4 DNA-binding domain in the pGBKT7 vector and used as bait; a human fetal brain cDNA expression library fused to the Gal4 transcriptional activation domain was screened in cells expressing the Bit1/GAL4 DNA-binding domain fusion. Approximately one million transformants from the cDNA library were screened, and about 100 clones positive for both nutritional selection and α-galactosidase activity were obtained.
The ability of AES to interact with Bit1 was confirmed in mammalian cells.
Yeast two-hybrid screening was performed as follows. Full length CGI-147 was cloned in-frame with the Gal4 DNA binding domain in vector pGBKT7 and used to screen a yeast two-hybrid library derived from human fetal brain (Clontech). Yeast strain AH109 was co-transformed with PGBKT7-Bit1, pACT-2-AES or both, and growth selected in SD medium -ADE/-His/-Leu/-Trp and assayed for α-galactosidase activity according to the manufacturer's instructions (Clontech).

The test system of another experiment is HEK 293T cells. Description: Anoikis of attached or detached (poly-HEMA) transfected cells. The class given is cell-based, human. The protocol: The role of Bit1 in the tendency of detached cells to undergo apoptosis (anoikis in the strictest sense) was then examined. HEK 293T cells were transfected with C-terminally myc-tagged (mitochondrial) Bit1 or with empty vector, and the cells were cultured either on tissue-culture plates (attached) or on poly-HEMA (detached) for 48 hours. The number of attached cells (10^6) was the same whether the cells were transfected with Bit1 or vector (assigned as 100% in FIG. 8H).
As is shown in FIG. 8H, Bit1 and control transfected cells had the same level of spontaneous apoptosis when grown attached to a culture dish. In striking contrast, detachment induced a higher level of cell death in the Bit1-transfected cells than in the control cells. Given that the transfection efficiency was about 50-70% in the 293T cells, the nearly 4-fold higher apoptosis level of the Bit1-transfected cells translates into more than 5-fold difference in anoikis sensitivity.

For another experiment, the system named is HEK 293 cells. In words: Annexin V-FITC/propidium iodide staining of Bit1-transfected cells. It counts as cell-based, human. As for the experimental part: (§1) Bit1 activity was analyzed in the human embryonic kidney cell line, HEK 293. […] Furthermore, HEK 293 cells were transfected with a Bcl-2-promoter-luciferase reporter construct together with increasing amounts of Bit1 expression construct; Bcl-2 transcription was measured by quantifying luciferase […] after 24 hours in culture. In agreement with the CHO cell results, transcription from the Bcl-2 promoter was suppressed in the Bit1-transfected HEK 293 cells (see FIG. 1B). […] In particular, the percentages of annexin V-positive cells (lower right quadrants) are about 1.4% in the control and about 4.7% in the Bit1-transfected cells.
Analysis of cell viability and apoptosis was performed as follows. Cell viability was measured by trypan blue exclusion analysis. Apoptosis was confirmed by DNA fragmentation (Oncogene; La Jolla, Calif.) thirty-six hours after transfection. Annexin-V staining (BD Biosciences Clontech; Palo Alto, Calif.) was performed according to the manufacturer's protocol.

A further experiment relates to 19,000 human cDNAs. Description: cDNA microarray analysis of ecdysone-induced Bit1 or AES cell lines. The class given is cell-based. The protocol:
To determine whether the Bit1/AES pathway can regulate the transcription of genes other than Bcl-2, two stable cell lines were established expressing either-Bit1 or AES under control of an ecdysone-inducible promoter. To detect genes regulated by Bit1 or AES, probes were prepared from the ecdysone-induced cell lines and used to screen microarrays representing 19,000 human cDNAs. […] Down-regulation of HSP-70 and thymosin 4 in cells induced to express Bit1 or AES was confirmed by Northern blot analysis (see FIG. 7).
cDNA microarray analysis was performed as follows. Total RNA was purified 48 hours after treatment with 10 μM ponasterone A (Invitrogen; San Diego, Calif.) from the ecdysone inducible cell line ECR-293-Bit1 or ECR-293-AES according to the manufacturer's instructions (Qiagen; Valencia, Calif.). cDNA probes were generated and hybridized with a microarray containing 19,000 human cDNAs from Microarray Centre at University Health Network, Ontario Cancer institute. cDNAs were labeled with fluorescent dyes (Cy3 or Cy5) using reverse transcription. Arrays were processed and hybridized essentially as described in Iyer et al., Science 283:83-87 (1999). After hybridization, arrays were scanned to measure fluorescence using a ScanArray 4000 scanner (Perkin Elmer; Meriden, Conn.). Raw data files generated by scanner software were imported into ImaGene and Gene Spring for analysis. Experiments were performed in duplicate using color reversals.

The test system of another experiment is Bcl-2 promoter. In words: Bcl-2-promoter-luciferase reporter assay in HEK 293 cells. The class given is cell-based, human. The settings on record: luciferase after 24 hours. As for the experimental part:
as §1
(In general: A reporter such as luciferase makes a cellular process visible.)

Experiment [2] has as its target T1, AES. In words: Co-immunoprecipitation of exogenously expressed tagged Bit1 and AES. The class given is binding. The conditions noted are these: immunoprecipitated with anti-flag, immunoblotted with anti-myc. The protocol:
Tagged Bit1 and AES were transfected into cells, and cell extracts were immunoprecipitated with anti-flag and immunoblotted with anti-myc. Equal loading of the samples was confirmed by immunoblotting of the whole extract with anti-flag.
Immunoprecipitation and immunoblotting were performed essentially as follows. Cells were transfected with full-length clones for Bit1 and AES, which were obtained by PCR from EST clones using Pfu enzyme (Stratagene; La Jolla, Calif.) and cloned into pCMV-Myc (Clontech) or pCMV-flag (Sigma; St. Louis, Mo.). After 24 to 48 hours, cells were harvested in ice-cold NP-40 lysis buffer (1% NP-40; 20 mM Tris-HCl, pH 7.4; 150 mM NaCl; 10% glycerol, 2 mM sodium vanadate; 1 mM phenylmethyl sulfonylfluoride; 10 μg/ml leupeptin; and 5 μg/ml aprotinin) and lysed at 4° C. for 15 minutes. Lysates were incubated for two hours with the indicated antibodies, and the antibody complexes precipitated with 20 μl of Gammabind (Amersham-Pharmacia; Piscataway, N.J.) for an additional hour. After washing the beads, bound proteins were solubilized in SDS-PAGE sample buffer. Western blot analysis was performed according to standard procedures.
A general note: Immunoblotting shows a protein as a band on a membrane.

B1: Bit1: human Bit1 polypeptide of 179 residues (SEQ ID NO:2), pro-apoptotic, expressed in cells by transfection (protein, listed as Homo sapiens)
chain: MPSKSLVMEYLAHPSTLGLAVGVACGMCLGWSLRVCFGMLPKSKTSKTHTDTESEASILGDSGEYKMILVVRNDLKMGKGKVAAQCSHAAVSAYKQIQRRNPEMLKQWEYCGQPKVVVKAPDEETLIALLAHAKMLGLTVSLIQDAGRTQIAPGSQTVLGIGPGPADLIDKVTGHLKLY
With B1, in the experiment with AES [1], the “interaction with AES, growth of co-transformed yeast” value is “yeast grew”. Besides, the “reduction of the number of surviving cells in detached cultures” value in the experiment with HEK 293T cells (C-terminally myc-tagged Bit1, poly-HEMA, 48 hours, 8% in the vector transfection) worked out at 30%. The “apoptosis level of Bit1-transfected cells versus control cells, detached” value in the experiment with HEK 293T cells (HEK 293T cells, detached) is recorded as around 4 fold. Further, the “difference in anoikis sensitivity” value with HEK 293T cells (corrected for transfection efficiency of about 50-70%) was “more than 5 fold”. In addition, in the experiment on HEK 293 cells (Bit1-transfected HEK 293 cells versus control), the “Late stage apoptosis, both annexin V and propidium iodide uptake (upper right quadrants)” value was 18%. Besides, the “percentages of annexin V-positive cells (lower right quadrants)” value in the experiment on HEK 293 cells (Bit1-transfected HEK 293 cells, control about 1.4%) is listed as “about 4.7%”. The Bcl-2 expression entry with 19,000 human cDNAs (Bit1 and AES stable cell lines) is given as “not measurably altered”. In the experiment on 19,000 human cDNAs (at least a two-fold induction, value is the gene), the “Microarray result: gene induced” value was “Atrophin-1 interacting protein 1; also recorded: Mannosyl (β-1,4)-glycoprotein; also recorded: insulin-like growth factor-binding; also recorded: Tissue factor pathway inhibitor 2”. The “Microarray result: gene suppressed” value in the experiment with 19,000 human cDNAs (at least a two-fold suppression, value is the gene) is recorded as “Heat Shock 70 kD protein 1A; also recorded: Thymosin β-4; also recorded: Actin-binding LIM protein; also recorded: sialytransferase”. For the same molecule, the “transcription from the Bcl-2 promoter” value in the experiment on Bcl-2 promoter is reported as “suppressed”. Also, in the experiment with AES [2], the “co-immunoprecipitation with AES” value is on record as “confirmed interaction”.
